Laboratory results taken from article PMC12784346, “Paratope mapping of tilvestamab, an anti-AXL function-blocking antibody, using high-throughput bacterial expression of secreted scFv-osmY fusion proteins” (Bioscience Reports, 2025).

biological target: T1, AXL Ig1 domain fused to human Fc (Homo sapiens, UniProt P30530); assay: BLI; Octet RED96; His-tagged scFv-osmY captured on Ni-NTA tips from undiluted bacterial supernatant (600 s); AXL Ig1 domain Fc 5.6 ug/ml in kinetic buffer (0.02% Tween 20, 0.05% sodium azide, 0.1% BSA in PBS) as analyte; rat Axl-Fc as control; traces scored by eye (normal, fast, very fast, weak, weak fast, none); settings: one partner purified
T1 construct: AXL receptor tyrosine kinase, human, Ig1 domain of the extracellular domain; Construct limits and production are in the Supplementary Information; also called AXL Ig1-Fc; AXL-Ig1-Fc

Binder	binding result
parental tilvestamab scFv-osmY fusion protein (scFv, V domains shown, VH of tilvestamab (BGB149); numbers count on: the scFv-osmY fusion protein; linker between VH and VL, adapted from the vector pOPE101; VL of tilvestamab (BGB149); About 52 kDa; vector pET-22b(+); also called parental scFv-osmY; parental scFv; source: E. coli T7 expression strain, secreted, culture supernatant used directly; not shown: His6, C-terminal, kept) VH: EVQLVESGGGLVQPGGSLRLSCAASGYSFTDFYINWVRQAPGKGLEWVARIFPGGDNTYYNEKFKGRFTLSADTSKSTAYLQMNSLRAEDTAVYYCARRGLYYAMDYWGQGTLVTVSS VL: DIQMTQSPSSLSASVGDRVTITCRSSQSLVHSNGIPYLHWYQQKPGKAPKLLIYRVSNRFSGVPSRFSGSGSGTDFTLTISSLQPEDFATYYCSQGTHVPPTFGQGTKVEIK	binds
tilvestamab scFv-osmY Y191A (scFv, V domains shown, VH of tilvestamab, as the VH of m1; linker; VL of tilvestamab, as the VL of m1; numbers count on: the scFv-osmY fusion protein; source: E. coli T7 expression strain, secreted, culture supernatant used directly; not shown: His6, C-terminal, kept) VH: EVQLVESGGGLVQPGGSLRLSCAASGYSFTDFYINWVRQAPGKGLEWVARIFPGGDNTYYNEKFKGRFTLSADTSKSTAYLQMNSLRAEDTAVYYCARRGLYYAMDYWGQGTLVTVSS VL: DIQMTQSPSSLSASVGDRVTITCRSSQSLVHSNGIPYLHWYQQKPGKAPKLLIARVSNRFSGVPSRFSGSGSGTDFTLTISSLQPEDFATYYCSQGTHVPPTFGQGTKVEIK	binds
tilvestamab scFv-osmY F33Y (scFv, V domains shown, VH of tilvestamab, as the VH of m1; numbers count on: the scFv-osmY fusion protein; linker; VL of tilvestamab, as the VL of m1; source: E. coli T7 expression strain, secreted, culture supernatant used directly; not shown: His6, C-terminal, kept) VH: EVQLVESGGGLVQPGGSLRLSCAASGYSFTDYYINWVRQAPGKGLEWVARIFPGGDNTYYNEKFKGRFTLSADTSKSTAYLQMNSLRAEDTAVYYCARRGLYYAMDYWGQGTLVTVSS VL: DIQMTQSPSSLSASVGDRVTITCRSSQSLVHSNGIPYLHWYQQKPGKAPKLLIYRVSNRFSGVPSRFSGSGSGTDFTLTISSLQPEDFATYYCSQGTHVPPTFGQGTKVEIK	binds
tilvestamab scFv-osmY Y103A (scFv, V domains shown, VH of tilvestamab, as the VH of m1; numbers count on: the scFv-osmY fusion protein; linker; VL of tilvestamab, as the VL of m1; source: E. coli T7 expression strain, secreted, culture supernatant used directly; not shown: His6, C-terminal, kept) VH: EVQLVESGGGLVQPGGSLRLSCAASGYSFTDFYINWVRQAPGKGLEWVARIFPGGDNTYYNEKFKGRFTLSADTSKSTAYLQMNSLRAEDTAVYYCARRGLAYAMDYWGQGTLVTVSS VL: DIQMTQSPSSLSASVGDRVTITCRSSQSLVHSNGIPYLHWYQQKPGKAPKLLIYRVSNRFSGVPSRFSGSGSGTDFTLTISSLQPEDFATYYCSQGTHVPPTFGQGTKVEIK	binds
tilvestamab scFv-osmY M106A (scFv, V domains shown, VH of tilvestamab, as the VH of m1; numbers count on: the scFv-osmY fusion protein; linker; VL of tilvestamab, as the VL of m1; source: E. coli T7 expression strain, secreted, culture supernatant used directly; not shown: His6, C-terminal, kept) VH: EVQLVESGGGLVQPGGSLRLSCAASGYSFTDFYINWVRQAPGKGLEWVARIFPGGDNTYYNEKFKGRFTLSADTSKSTAYLQMNSLRAEDTAVYYCARRGLYYAADYWGQGTLVTVSS VL: DIQMTQSPSSLSASVGDRVTITCRSSQSLVHSNGIPYLHWYQQKPGKAPKLLIYRVSNRFSGVPSRFSGSGSGTDFTLTISSLQPEDFATYYCSQGTHVPPTFGQGTKVEIK	binds
tilvestamab scFv-osmY F33S (scFv, V domains shown, VH of tilvestamab, as the VH of m1; numbers count on: the scFv-osmY fusion protein; linker; VL of tilvestamab, as the VL of m1; source: E. coli T7 expression strain, secreted, culture supernatant used directly; not shown: His6, C-terminal, kept) VH: EVQLVESGGGLVQPGGSLRLSCAASGYSFTDSYINWVRQAPGKGLEWVARIFPGGDNTYYNEKFKGRFTLSADTSKSTAYLQMNSLRAEDTAVYYCARRGLYYAMDYWGQGTLVTVSS VL: DIQMTQSPSSLSASVGDRVTITCRSSQSLVHSNGIPYLHWYQQKPGKAPKLLIYRVSNRFSGVPSRFSGSGSGTDFTLTISSLQPEDFATYYCSQGTHVPPTFGQGTKVEIK	binds
tilvestamab scFv-osmY G233A (scFv, V domains shown, VH of tilvestamab, as the VH of m1; linker; VL of tilvestamab, as the VL of m1; numbers count on: the scFv-osmY fusion protein; source: E. coli T7 expression strain, secreted, culture supernatant used directly; not shown: His6, C-terminal, kept) VH: EVQLVESGGGLVQPGGSLRLSCAASGYSFTDFYINWVRQAPGKGLEWVARIFPGGDNTYYNEKFKGRFTLSADTSKSTAYLQMNSLRAEDTAVYYCARRGLYYAMDYWGQGTLVTVSS VL: DIQMTQSPSSLSASVGDRVTITCRSSQSLVHSNGIPYLHWYQQKPGKAPKLLIYRVSNRFSGVPSRFSGSGSGTDFTLTISSLQPEDFATYYCSQATHVPPTFGQGTKVEIK	binds

Further lines, results first:

binding result	Binder
binds	tilvestamab scFv-osmY T31A (scFv, V domains shown, VH of tilvestamab, as the VH of m1; numbers count on: the scFv-osmY fusion protein; linker; VL of tilvestamab, as the VL of m1; source: E. coli T7 expression strain, secreted, culture supernatant used directly; not shown: His6, C-terminal, kept) VH: EVQLVESGGGLVQPGGSLRLSCAASGYSFADFYINWVRQAPGKGLEWVARIFPGGDNTYYNEKFKGRFTLSADTSKSTAYLQMNSLRAEDTAVYYCARRGLYYAMDYWGQGTLVTVSS VL: DIQMTQSPSSLSASVGDRVTITCRSSQSLVHSNGIPYLHWYQQKPGKAPKLLIYRVSNRFSGVPSRFSGSGSGTDFTLTISSLQPEDFATYYCSQGTHVPPTFGQGTKVEIK
binds	tilvestamab scFv-osmY Y108A (scFv, V domains shown, VH of tilvestamab, as the VH of m1; numbers count on: the scFv-osmY fusion protein; linker; VL of tilvestamab, as the VL of m1; source: E. coli T7 expression strain, secreted, culture supernatant used directly; not shown: His6, C-terminal, kept) VH: EVQLVESGGGLVQPGGSLRLSCAASGYSFTDFYINWVRQAPGKGLEWVARIFPGGDNTYYNEKFKGRFTLSADTSKSTAYLQMNSLRAEDTAVYYCARRGLYYAMDAWGQGTLVTVSS VL: DIQMTQSPSSLSASVGDRVTITCRSSQSLVHSNGIPYLHWYQQKPGKAPKLLIYRVSNRFSGVPSRFSGSGSGTDFTLTISSLQPEDFATYYCSQGTHVPPTFGQGTKVEIK
binds	tilvestamab scFv-osmY L102S (scFv, V domains shown, VH of tilvestamab, as the VH of m1; numbers count on: the scFv-osmY fusion protein; linker; VL of tilvestamab, as the VL of m1; source: E. coli T7 expression strain, secreted, culture supernatant used directly; not shown: His6, C-terminal, kept) VH: EVQLVESGGGLVQPGGSLRLSCAASGYSFTDFYINWVRQAPGKGLEWVARIFPGGDNTYYNEKFKGRFTLSADTSKSTAYLQMNSLRAEDTAVYYCARRGSYYAMDYWGQGTLVTVSS VL: DIQMTQSPSSLSASVGDRVTITCRSSQSLVHSNGIPYLHWYQQKPGKAPKLLIYRVSNRFSGVPSRFSGSGSGTDFTLTISSLQPEDFATYYCSQGTHVPPTFGQGTKVEIK
